Experimental data taken from patent US20140213531A1 (POLYPHOR, published 2014).

T1: Chymase, from human skin (human, UniProt P23946 22-247)
T1 construct: purified natural enzyme, bought
T1 sequence (looked up): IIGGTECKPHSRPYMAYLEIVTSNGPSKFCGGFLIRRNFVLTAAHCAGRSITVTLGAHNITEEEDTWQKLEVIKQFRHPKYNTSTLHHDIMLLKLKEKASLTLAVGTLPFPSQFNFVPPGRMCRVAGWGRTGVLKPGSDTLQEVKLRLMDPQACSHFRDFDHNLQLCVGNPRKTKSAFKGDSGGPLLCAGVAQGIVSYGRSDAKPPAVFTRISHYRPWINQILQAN


Key:
Assay in all cases: enzyme inhibition, pNA substrate
[1] = target: T2, Coagulation Factor Xa, from uman plasma (human, UniProt P00742 41-179; P00742 235-488, limits assumed)
T2 construct: purified natural enzyme, bought; also called FXa
T2 sequence (P00742 41-179 limits assumed, chain 1 of 2): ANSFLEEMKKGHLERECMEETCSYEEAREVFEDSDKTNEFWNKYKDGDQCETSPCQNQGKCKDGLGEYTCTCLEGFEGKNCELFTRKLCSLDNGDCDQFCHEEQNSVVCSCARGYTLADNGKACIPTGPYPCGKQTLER
T2 sequence (P00742 235-488 limits assumed, chain 2 of 2): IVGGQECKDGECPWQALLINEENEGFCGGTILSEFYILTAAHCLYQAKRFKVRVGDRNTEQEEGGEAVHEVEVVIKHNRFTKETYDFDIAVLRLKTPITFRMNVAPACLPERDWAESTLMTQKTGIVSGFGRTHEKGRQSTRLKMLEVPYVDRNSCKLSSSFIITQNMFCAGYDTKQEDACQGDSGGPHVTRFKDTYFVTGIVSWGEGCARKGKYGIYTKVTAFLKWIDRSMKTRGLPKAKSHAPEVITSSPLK

[2] = target: T3, Tryptase, from human lung (human, UniProt Q15661 31-275, limits assumed)
T3 construct: purified natural enzyme, bought
T3 sequence (Q15661 31-275 limits assumed): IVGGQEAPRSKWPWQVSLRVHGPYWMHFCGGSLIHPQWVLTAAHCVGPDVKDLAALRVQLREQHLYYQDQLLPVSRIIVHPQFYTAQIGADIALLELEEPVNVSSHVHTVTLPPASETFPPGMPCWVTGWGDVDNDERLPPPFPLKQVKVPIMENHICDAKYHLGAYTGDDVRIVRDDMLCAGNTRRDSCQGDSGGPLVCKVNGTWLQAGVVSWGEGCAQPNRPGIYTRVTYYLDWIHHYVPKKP

Chymase, from human skin = target: T1, Chymase, from human skin
[3] = target: T4, Chymotrypsin, from human pancreas (human, UniProt P17538 19-263)
T4 construct: purified natural enzyme, bought
T4 sequence (P17538 19-263): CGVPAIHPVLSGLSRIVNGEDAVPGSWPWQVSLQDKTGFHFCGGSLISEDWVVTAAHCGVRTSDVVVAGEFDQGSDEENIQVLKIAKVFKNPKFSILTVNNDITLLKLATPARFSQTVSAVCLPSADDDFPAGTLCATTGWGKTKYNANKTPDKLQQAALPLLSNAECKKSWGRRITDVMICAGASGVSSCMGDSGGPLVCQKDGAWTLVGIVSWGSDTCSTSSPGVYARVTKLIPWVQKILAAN

[4] = target: Thrombin, from Human Plasma, high activity (human, UniProt P00734 328-622)
[5] = target: T5, Urokinase from human urine (human, UniProt P00749 21-431, limits assumed)
T5 construct: purified natural enzyme, bought

[6] = target: T6, Trypsin, Iodination grade, from human pancreas (human, UniProt P07477 24-247)
T6 construct: purified natural enzyme, bought

% inhibition at 100 µM [1] [%]	% inhibition at 100 µM [2] [%]	% inhibition at 100 µM (Chymase, from human skin) [%]	% inhibition at 100 µM [3] [%]	% inhibition at 100 µM [4] [%]	% inhibition at 100 µM [5] [%]	% inhibition at 100 µM [6] [%]	Binder
0	–	0	–	–	–	–	XCTASIPPQCY (HELM PEPTIDE1{[Nle].C.T.A.S.I.P.P.Q.C.Y.[dP].Q}$PEPTIDE1,PEPTIDE1,2:R3-10:R3|PEPTIDE1,PEPTIDE1,1:R1-13:R2$$$V2.0; SMILES CCCC[C@@H]1NC(=O)[C@H](CCC(N)=O)NC(=O)[C@H]2CCCN2C(=O)[C@H](Cc2ccc(O)cc2)NC(=O)[C@@H]2CSSC[C@H](NC1=O)C(=O)N[C@@H]([C@@H](C)O)C(=O)N[C@@H](C)C(=O)N[C@@H](CO)C(=O)N[C@@H]([C@@H](C)CC)C(=O)N1CCC[C@H]1C(=O)N1CCC[C@H]1C(=O)N[C@@H](CCC(N)=O)C(=O)N2, also called Ex. 123) [Example 123]
–	0	–	76	–	–	–	XCTASIPPQCY (HELM PEPTIDE1{[Nle].C.T.A.S.I.P.P.Q.C.Y.[dP].P}$PEPTIDE1,PEPTIDE1,2:R3-10:R3|PEPTIDE1,PEPTIDE1,1:R1-13:R2$$$V2.0; SMILES CCCC[C@@H]1NC(=O)[C@@H]2CCCN2C(=O)[C@H]2CCCN2C(=O)[C@H](Cc2ccc(O)cc2)NC(=O)[C@@H]2CSSC[C@H](NC1=O)C(=O)N[C@@H]([C@@H](C)O)C(=O)N[C@@H](C)C(=O)N[C@@H](CO)C(=O)N[C@@H]([C@@H](C)CC)C(=O)N1CCC[C@H]1C(=O)N1CCC[C@H]1C(=O)N[C@@H](CCC(N)=O)C(=O)N2) [Example 179]
0	–	–	–	0	–	28.3	XCTASIPPQCY (HELM PEPTIDE1{[Nle].C.T.A.S.I.P.P.Q.C.Y.[dP].V}$PEPTIDE1,PEPTIDE1,2:R3-10:R3|PEPTIDE1,PEPTIDE1,1:R1-13:R2$$$V2.0; SMILES CCCC[C@@H]1NC(=O)[C@H](C(C)C)NC(=O)[C@H]2CCCN2C(=O)[C@H](Cc2ccc(O)cc2)NC(=O)[C@@H]2CSSC[C@H](NC1=O)C(=O)N[C@@H]([C@@H](C)O)C(=O)N[C@@H](C)C(=O)N[C@@H](CO)C(=O)N[C@@H]([C@@H](C)CC)C(=O)N1CCC[C@H]1C(=O)N1CCC[C@H]1C(=O)N[C@@H](CCC(N)=O)C(=O)N2) [Example 125]
–	–	–	72.9	0	–	12.8	XCTASIPPQCY (HELM PEPTIDE1{[Nle].C.T.A.S.I.P.P.Q.C.Y.[dP].D}$PEPTIDE1,PEPTIDE1,2:R3-10:R3|PEPTIDE1,PEPTIDE1,1:R1-13:R2$$$V2.0; SMILES CCCC[C@@H]1NC(=O)[C@H](CC(=O)O)NC(=O)[C@H]2CCCN2C(=O)[C@H](Cc2ccc(O)cc2)NC(=O)[C@@H]2CSSC[C@H](NC1=O)C(=O)N[C@@H]([C@@H](C)O)C(=O)N[C@@H](C)C(=O)N[C@@H](CO)C(=O)N[C@@H]([C@@H](C)CC)C(=O)N1CCC[C@H]1C(=O)N1CCC[C@H]1C(=O)N[C@@H](CCC(N)=O)C(=O)N2, also called Ex. 168) [Example 168]
–	–	0	68.7	0	–	–	XCTASIPPQCF (HELM PEPTIDE1{[Nle].C.T.A.S.I.P.P.Q.C.F.[dP].P}$PEPTIDE1,PEPTIDE1,2:R3-10:R3|PEPTIDE1,PEPTIDE1,1:R1-13:R2$$$V2.0; SMILES CCCC[C@@H]1NC(=O)[C@@H]2CCCN2C(=O)[C@H]2CCCN2C(=O)[C@H](Cc2ccccc2)NC(=O)[C@@H]2CSSC[C@H](NC1=O)C(=O)N[C@@H]([C@@H](C)O)C(=O)N[C@@H](C)C(=O)N[C@@H](CO)C(=O)N[C@@H]([C@@H](C)CC)C(=O)N1CCC[C@H]1C(=O)N1CCC[C@H]1C(=O)N[C@@H](CCC(N)=O)C(=O)N2, also called Ex. 137) [Example 137]
0	0	0	80.6	–	–	–	XCTASIPPQCX (HELM PEPTIDE1{[Nle].C.T.A.S.I.P.P.Q.C.[O=C([C@H](Cc1ccccc1Cl)N[*:1])[*:2]].[dP].P}$PEPTIDE1,PEPTIDE1,2:R3-10:R3|PEPTIDE1,PEPTIDE1,1:R1-13:R2$$$V2.0; SMILES CCCC[C@@H]1NC(=O)[C@@H]2CCCN2C(=O)[C@H]2CCCN2C(=O)[C@H](Cc2ccccc2Cl)NC(=O)[C@@H]2CSSC[C@H](NC1=O)C(=O)N[C@@H]([C@@H](C)O)C(=O)N[C@@H](C)C(=O)N[C@@H](CO)C(=O)N[C@@H]([C@@H](C)CC)C(=O)N1CCC[C@H]1C(=O)N1CCC[C@H]1C(=O)N[C@@H](CCC(N)=O)C(=O)N2) [Example 144]

Second part, the binder before the results:

Binder	% inhibition at 100 µM [1] [%]	% inhibition at 100 µM [2] [%]	% inhibition at 100 µM (Chymase, from human skin) [%]	% inhibition at 100 µM [3] [%]	% inhibition at 100 µM [4] [%]	% inhibition at 100 µM [5] [%]	% inhibition at 100 µM [6] [%]
XCTASIPPQCX (HELM PEPTIDE1{[Nle].C.T.A.S.I.P.P.Q.C.[O=C([C@H](Cc1ccccc1Cl)N[*:1])[*:2]].[dP].P}$PEPTIDE1,PEPTIDE1,2:R3-10:R3|PEPTIDE1,PEPTIDE1,1:R1-13:R2$$$V2.0; SMILES CCCC[C@@H]1NC(=O)[C@@H]2CCCN2C(=O)[C@H]2CCCN2C(=O)[C@H](Cc2ccccc2Cl)NC(=O)[C@@H]2CSSC[C@H](NC1=O)C(=O)N[C@@H]([C@@H](C)O)C(=O)N[C@@H](C)C(=O)N[C@@H](CO)C(=O)N[C@@H]([C@@H](C)CC)C(=O)N1CCC[C@H]1C(=O)N1CCC[C@H]1C(=O)N[C@@H](CCC(N)=O)C(=O)N2, also called Ex. 96) [Example 96]	0	0	0	–	–	–	–
XCTASIPPQCX (HELM PEPTIDE1{[Nle].C.T.A.S.I.P.P.Q.C.[O=C([C@H](Cc1ccc2ccccc2c1)N[*:1])[*:2]].[dP].P}$PEPTIDE1,PEPTIDE1,2:R3-10:R3|PEPTIDE1,PEPTIDE1,1:R1-13:R2$$$V2.0; SMILES CCCC[C@@H]1NC(=O)[C@@H]2CCCN2C(=O)[C@H]2CCCN2C(=O)[C@H](Cc2ccc3ccccc3c2)NC(=O)[C@@H]2CSSC[C@H](NC1=O)C(=O)N[C@@H]([C@@H](C)O)C(=O)N[C@@H](C)C(=O)N[C@@H](CO)C(=O)N[C@@H]([C@@H](C)CC)C(=O)N1CCC[C@H]1C(=O)N1CCC[C@H]1C(=O)N[C@@H](CCC(N)=O)C(=O)N2, also called Ex. 95) [Example 95]	11.3	0	0	–	0	10.3	–
XCTASIPPQCY (HELM PEPTIDE1{[CCCCCCCC[C@H](N[*:1])C(=O)[*:2]].C.T.A.S.I.P.P.Q.C.Y.[dP].P}$PEPTIDE1,PEPTIDE1,2:R3-10:R3|PEPTIDE1,PEPTIDE1,1:R1-13:R2$$$V2.0; SMILES CCCCCCCC[C@@H]1NC(=O)[C@@H]2CCCN2C(=O)[C@H]2CCCN2C(=O)[C@H](Cc2ccc(O)cc2)NC(=O)[C@@H]2CSSC[C@H](NC1=O)C(=O)N[C@@H]([C@@H](C)O)C(=O)N[C@@H](C)C(=O)N[C@@H](CO)C(=O)N[C@@H]([C@@H](C)CC)C(=O)N1CCC[C@H]1C(=O)N1CCC[C@H]1C(=O)N[C@@H](CCC(N)=O)C(=O)N2) [Example 102]	0	0	0	–	–	–	0
XCTASIPPQCX (HELM PEPTIDE1{[Nle].C.T.A.S.I.P.P.Q.C.[Cha].[dP].P}$PEPTIDE1,PEPTIDE1,2:R3-10:R3|PEPTIDE1,PEPTIDE1,1:R1-13:R2$$$V2.0; SMILES CCCC[C@@H]1NC(=O)[C@@H]2CCCN2C(=O)[C@H]2CCCN2C(=O)[C@H](CC2CCCCC2)NC(=O)[C@@H]2CSSC[C@H](NC1=O)C(=O)N[C@@H]([C@@H](C)O)C(=O)N[C@@H](C)C(=O)N[C@@H](CO)C(=O)N[C@@H]([C@@H](C)CC)C(=O)N1CCC[C@H]1C(=O)N1CCC[C@H]1C(=O)N[C@@H](CCC(N)=O)C(=O)N2, also called Ex. 97) [Example 97]	–	0	0	–	11.6	11.9	–
XCTASXPPQCY (HELM PEPTIDE1{[Nle].C.T.A.S.[CC(C)(C)C[C@H](N[*:1])C(=O)[*:2]].P.P.Q.C.Y.[dP].P}$PEPTIDE1,PEPTIDE1,2:R3-10:R3|PEPTIDE1,PEPTIDE1,1:R1-13:R2$$$V2.0; SMILES CCCC[C@@H]1NC(=O)[C@@H]2CCCN2C(=O)[C@H]2CCCN2C(=O)[C@H](Cc2ccc(O)cc2)NC(=O)[C@@H]2CSSC[C@H](NC1=O)C(=O)N[C@@H]([C@@H](C)O)C(=O)N[C@@H](C)C(=O)N[C@@H](CO)C(=O)N[C@@H](CC(C)(C)C)C(=O)N1CCC[C@H]1C(=O)N1CCC[C@H]1C(=O)N[C@@H](CCC(N)=O)C(=O)N2, also called Ex. 85) [Example 85]	25.6	–	–	–	12.6	–	0
